This is an account of results in patent publication US20140242080A1 (Hoffmann-La Roche, published 2014).

The target of assay [1] is T1, human CD3 expressed on Jurkat cells (human, UniProt P07766 23-207).
T1 construct: CD3 complex on Jurkat T cells; also called CD3 on Jurkat cells; huCD3
The assay is described as follows: flow cytometry on Jurkat cells, 50 nM. The procedure:
(§1) Binding of the different bispecific constructs to CD3 on Jurkat cells (ATCC #TIB-152), and the respective tumor antigen on target cells, was determined by FACS. Briefly, cells were harvested, counted and checked for viability. 0.15-0.2 million cells per well (in PBS containing 0.1% BSA; 90 μl) were plated in a round-bottom 96-well plate and incubated with the indicated concentration of the bispecific constructs and corresponding IgG controls (10 μl) for 30 min at 4° C. […] After the incubation, cells were centrifuged (5 min, 350×g), washed with 150 μl PBS containing 0.1% BSA, resuspended and incubated for further 30 min at 4° C. with 12 μl/well of a FITC- or PE-conjugated secondary antibody. Bound constructs were detected using a FACSCantoII (Software FACS Diva). The “(scFv)₂” molecule was detected using a FITC-conjugated anti-His antibody (Lucerna, #RHIS-45F-Z). For all other molecules, a FITC- or PE-conjugated AffiniPure F(ab′)2 Fragment goat anti-human IgG Fcγ Fragment Specific (Jackson Immuno Research Lab #109-096-098/working solution 1:20, or #109-116-170/working solution 1:80, respectively) was used. Cells were washed by addition of 120 μl/well PBS containing 0.1% BSA and centrifugation at 350×g for 5 min. A second washing step was performed with 150 μl/well PBS containing 0.1% BSA. […] EC50 values were calculated using the GraphPad Prism software.
(§2) In a first experiment, different bispecific constructs targeting human MCSP and human CD3 were analyzed by flow cytometry for binding to human CD3 expressed on Jurkat, human T cell leukaemia cells, or to human MCSP on Colo-38 human melanoma cells.

For assay [2], the target named is T2, human MCSP expressed on tumor cells (Colo-38, WM266-4, A375, MV-3, HCT-116) (human, UniProt Q6UVK1 30-2322).
T2 construct: whole, on cells; also called huMCSP; MCSP on cells
The assay is described as follows: flow cytometry on Colo-38 cells, 50 nM. The procedure: as §1, §2

Assay [3] has as its target T2, human MCSP expressed on tumor cells …. The assay can be described thus: cell-based or functional assay.
For assay [4] the target is unchanged. The assay can be described thus: flow cytometry on WM266-4 cells. The procedure: as §1
For assay [5], the target named is T1, human CD3 expressed on Jurkat cells. The assay is described as follows: flow cytometry on Jurkat cells. The procedure: as §1
As a control, the equivalent maximum concentration of the corresponding IgGs and the background staining due to the labeled 2ndary antibody (goat anti-human FITC-conjugated AffiniPure F(ab′)2 Fragment, FcγFragment-specific, Jackson Immuno Research Lab #109-096-098) were assessed as well.

Assay [6] concerns the target T2, human MCSP expressed on tumor cells …. The assay is described as follows: cell-based or functional assay. This is another data set of the same source.
Assay [7] concerns the target T3, HuFcγRIIIa-V158-K6H6 (human, UniProt P08637 17-208, limits assumed).
T3 construct: His-tagged recombinant receptor captured by anti-Penta His antibody; also called human FcγRIIIa-V158; human FcγRIIIa
The assay is described as follows: SPR Biacore T100, 25 C; receptor captured via anti-Penta His, construct as analyte; kinetic, one concentration (1000 nM). On the procedure: For analyzing interaction of different Fc-variants with human FcγRIIIa-V158 and murine FcγRIV direct coupling of around 6,500 resonance units (RU) of the anti-Penta His antibody (Qiagen) is performed on a CM5 chip at pH 5.0 using the standard amine coupling kit (Biacore, Freiburg/Germany). HuFcγRIIIa-V158-K6H6 and muFcγRIV-aviHis-biotin are captured for 60 s at 4 and 10 nM respectively.
Constructs with different Fc-mutations are passed through the flow cells for 120 s at a concentration of 1000 nM with a flow rate of 30 μl/min. The dissociation is monitored for 220 s. Bulk refractive index differences are corrected for by subtracting the response obtained in a reference flow cell. […] Affinity for human FcγRIIIa-V158 and murine FcγRIV was determined for wild-type Fc using a concentration range from 500-4000 nM.

T1 sequence (P07766 23-207 limits assumed): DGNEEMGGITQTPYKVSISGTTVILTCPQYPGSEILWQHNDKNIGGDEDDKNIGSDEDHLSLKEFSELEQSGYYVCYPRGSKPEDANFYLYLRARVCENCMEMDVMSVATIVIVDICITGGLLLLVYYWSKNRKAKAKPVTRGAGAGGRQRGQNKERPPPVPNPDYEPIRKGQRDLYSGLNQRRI
T2 sequence (Q6UVK1 30-2322): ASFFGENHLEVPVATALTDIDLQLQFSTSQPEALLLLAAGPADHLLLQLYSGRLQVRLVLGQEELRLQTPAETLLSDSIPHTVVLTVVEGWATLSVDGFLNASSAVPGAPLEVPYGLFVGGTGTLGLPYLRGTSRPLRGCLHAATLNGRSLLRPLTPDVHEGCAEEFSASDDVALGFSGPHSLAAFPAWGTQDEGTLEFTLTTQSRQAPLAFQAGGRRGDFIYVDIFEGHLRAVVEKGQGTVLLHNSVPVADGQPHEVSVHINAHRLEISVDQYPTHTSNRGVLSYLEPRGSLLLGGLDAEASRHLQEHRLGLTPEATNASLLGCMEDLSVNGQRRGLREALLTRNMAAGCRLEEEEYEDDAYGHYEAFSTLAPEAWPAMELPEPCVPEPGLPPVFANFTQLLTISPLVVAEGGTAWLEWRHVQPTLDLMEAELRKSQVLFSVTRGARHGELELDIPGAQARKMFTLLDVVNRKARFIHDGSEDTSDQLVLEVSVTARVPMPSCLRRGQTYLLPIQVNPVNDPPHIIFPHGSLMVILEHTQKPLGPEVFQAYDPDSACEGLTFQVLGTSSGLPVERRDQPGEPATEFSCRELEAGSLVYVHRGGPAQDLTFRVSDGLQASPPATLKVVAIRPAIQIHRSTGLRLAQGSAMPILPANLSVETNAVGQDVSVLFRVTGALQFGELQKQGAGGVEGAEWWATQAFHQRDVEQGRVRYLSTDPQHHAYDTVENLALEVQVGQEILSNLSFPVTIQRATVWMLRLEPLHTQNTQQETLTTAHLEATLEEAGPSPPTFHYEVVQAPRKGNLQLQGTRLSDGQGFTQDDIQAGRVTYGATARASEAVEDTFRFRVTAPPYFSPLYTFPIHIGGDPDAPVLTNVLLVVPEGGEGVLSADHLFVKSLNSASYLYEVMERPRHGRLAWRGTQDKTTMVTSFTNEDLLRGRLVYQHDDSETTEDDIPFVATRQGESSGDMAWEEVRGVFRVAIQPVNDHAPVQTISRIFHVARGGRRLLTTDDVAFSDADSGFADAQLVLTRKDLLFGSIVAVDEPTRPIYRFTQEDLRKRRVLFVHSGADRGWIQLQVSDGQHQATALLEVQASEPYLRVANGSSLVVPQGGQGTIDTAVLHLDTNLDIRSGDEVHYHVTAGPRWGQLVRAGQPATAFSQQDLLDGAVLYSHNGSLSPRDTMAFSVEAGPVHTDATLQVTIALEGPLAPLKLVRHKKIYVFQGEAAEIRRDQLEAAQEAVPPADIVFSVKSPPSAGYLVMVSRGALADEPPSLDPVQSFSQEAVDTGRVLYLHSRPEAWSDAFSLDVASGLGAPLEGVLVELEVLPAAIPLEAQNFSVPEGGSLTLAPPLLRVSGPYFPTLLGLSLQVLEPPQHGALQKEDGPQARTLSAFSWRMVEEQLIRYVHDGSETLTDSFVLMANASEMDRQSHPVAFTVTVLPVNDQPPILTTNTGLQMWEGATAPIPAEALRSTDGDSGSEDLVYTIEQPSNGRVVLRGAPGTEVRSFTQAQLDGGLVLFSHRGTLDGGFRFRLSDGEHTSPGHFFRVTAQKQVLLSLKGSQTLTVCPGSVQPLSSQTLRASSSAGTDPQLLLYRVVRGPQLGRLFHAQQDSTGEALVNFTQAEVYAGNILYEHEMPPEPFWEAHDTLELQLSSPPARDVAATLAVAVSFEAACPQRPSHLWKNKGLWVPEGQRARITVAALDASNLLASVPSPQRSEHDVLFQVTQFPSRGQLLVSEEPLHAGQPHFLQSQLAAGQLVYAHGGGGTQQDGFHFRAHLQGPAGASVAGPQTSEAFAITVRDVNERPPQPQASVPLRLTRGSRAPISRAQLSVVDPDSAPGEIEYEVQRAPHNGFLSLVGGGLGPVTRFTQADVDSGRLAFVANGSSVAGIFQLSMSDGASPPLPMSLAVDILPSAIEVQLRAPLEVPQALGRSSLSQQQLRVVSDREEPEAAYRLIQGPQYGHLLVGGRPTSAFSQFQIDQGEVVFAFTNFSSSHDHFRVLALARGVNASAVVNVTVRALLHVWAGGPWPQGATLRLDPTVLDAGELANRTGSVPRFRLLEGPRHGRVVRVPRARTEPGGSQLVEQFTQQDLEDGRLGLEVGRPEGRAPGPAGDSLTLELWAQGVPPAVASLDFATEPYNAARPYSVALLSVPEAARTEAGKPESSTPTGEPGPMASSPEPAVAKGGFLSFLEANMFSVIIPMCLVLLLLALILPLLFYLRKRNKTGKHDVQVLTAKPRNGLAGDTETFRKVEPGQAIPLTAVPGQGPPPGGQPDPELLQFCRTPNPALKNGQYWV
T3 sequence (P08637 17-208 F176V limits assumed): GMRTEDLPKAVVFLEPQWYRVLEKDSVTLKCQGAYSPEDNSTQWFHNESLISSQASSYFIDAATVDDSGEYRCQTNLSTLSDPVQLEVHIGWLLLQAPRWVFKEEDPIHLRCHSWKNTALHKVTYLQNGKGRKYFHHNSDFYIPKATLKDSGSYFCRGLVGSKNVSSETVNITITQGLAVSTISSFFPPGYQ

B1: “1+1 IgG scFab, one armed inverted” (anti-MCSP/anti-huCD3) (bispecific antibody)
chain 1: DIVLTQSPSSLSASLGDRVTISCSASQGIRNYLNWYQQRPDGTVKLLIYYTSSLHSGVPSRFSGSGSGTDYSLTISNLEPEDIATYYCQQYSKLPWTFGGGTKLEIKRTVAAPSVFIFPPSDEQLKSGTASVVCLLNNFYPREAKVQWKVDNALQSGNSQESVTEQDSKDSTYSLSSTLTLSKADYEKHKVYACEVTHQGLSSPVTKSFNRGECSGGGSGGGSEGGGSEGGGSEGGGSEGGGSGGGSGEVQLQESGPGLVKPSQSLSLTCSVTGYSITSGYYWNWIRQFPGNKLEWMGYITYDGSNNYNPSLKNRISITRDTSKNQFFLKLNSVTTEDTATYYCADFDYWGQGTTLTVSSASTKGPSVFPLAPSSKSTSGGTAALGCLVKDYFPEPVTVSWNSGALTSGVHTFPAVLQSSGLYSLSSVVTVPSSSLGTQTYICNVNHKPSNTKVDKKVEPKSCDGGGGSGGGGSGAQDKTHTCPPCPAPEAAGGPSVFLFPPKPKDTLMISRTPEVTCVVVDVSHEDPEVKFNWYVDGVEVHNAKTKPREEQYNSTYRVVSVLTVLHQDWLNGKEYKCKVSNKALPAPIEKTISKAKGQPREPQVCTLPPSRDELTKNQVSLSCAVKGFYPSDIAVEWESNGQPENNYKTTPPVLDSDGSFFLVSKLTVDKSRWQQGNVFSCSVMHEALHNHYTQKSLSLSPGK
chain 2: not shown
chain 3: not shown
For the molecule B1, the binding result in assay [1] and in assay [2] was “binds” throughout.

B2: 2 + 1 IgG Crossfab; VH/VL exchange (LC007/V9) (anti-MCSP/anti-huCD3) (bispecific antibody)
chain 1: not shown
chain 2: DIVLTQSPSSLSASLGDRVTISCSASQGIRNYLNWYQQRPDGTVKLLIYYTSSLHSGVPSRFSGSGSGTDYSLTISNLEPEDIATYYCQQYSKLPWTFGGGTKLEIKRTVAAPSVFIFPPSDEQLKSGTASVVCLLNNFYPREAKVQWKVDNALQSGNSQESVTEQDSKDSTYSLSSTLTLSKADYEKHKVYACEVTHQGLSSPVTKSFNRGEC
chain 3: DIQMTQSPSSLSASVGDRVTITCRASQDIRNYLNWYQQKPGKAPKLLIYYTSRLESGVPSRFSGSGSGTDYTLTISSLQPEDFATYYCQQGNTLPWTFGQGTKVEIKSSASTKGPSVFPLAPSSKSTSGGTAALGCLVKDYFPEPVTVSWNSGALTSGVHTFPAVLQSSGLYSLSSVVTVPSSSLGTQTYICNVNHKPSNTKVDKKVEPKSCGGGGSGGGGSEVQLQESGPGLVKPSQSLSLTCSVTGYSITSGYYWNWIRQFPGNKLEWMGYITYDGSNNYNPSLKNRISITRDTSKNQFFLKLNSVTTEDTATYYCADFDYWGQGTTLTVSSASTKGPSVFPLAPSSKSTSGGTAALGCLVKDYFPEPVTVSWNSGALTSGVHTFPAVLQSSGLYSLSSVVTVPSSSLGTQTYICNVNHKPSNTKVDKKVEPKSCDKTHTCPPCPAPEAAGGPSVFLFPPKPKDTLMISRTPEVTCVVVDVSHEDPEVKFNWYVDGVEVHNAKTKPREEQYNSTYRVVSVLTVLHQDWLNGKEYKCKVSNKALGAPIEKTISKAKGQPREPQVCTLPPSRDELTKNQVSLSCAVKGFYPSDIAVEWESNGQPENNYKTTPPVLDSDGSFFLVSKLTVDKSRWQQGNVFSCSVMHEALHNHYTQKSLSLSPGK
chain 4: EVQLVESGGGLVQPGGSLRLSCAASGYSFTGYTMNWVRQAPGKGLEWVALINPYKGVSTYNQKFKDRFTISVDKSKNTAYLQMNSLRAEDTAVYYCARSGYYGDSDWYFDVWGQGTLVTVSSASVAAPSVFIFPPSDEQLKSGTASVVCLLNNFYPREAKVQWKVDNALQSGNSQESVTEQDSKDSTYSLSSTLTLSKADYEKHKVYACEVTHQGLSSPVTKSFNRGEC
notes: vectors second heavy chain:light chain:first heavy chain-heavy chain Crossfab:light chain Crossfab 1:2:1:1; also called 2+1 IgG Crossfab (V9)
Consider B2, for which, in assay [3], the “EC50 [pM] of T cell-mediated killing (LDH release), MV-3 cells, human PBMCs E:T 10:1, about 24 h” value was determined as 10 pM and the “EC50 [pM] of T cell-mediated killing (LDH release), WM266-4 cells, human PBMCs E:T 10:1, about 24 h” value amounted to 12.4 pM. The EC50 in assay [4] was 0.95 nM. In addition, the EC50 in assay [5] was found to be 1.66 nM. For the same molecule, in assay [6], the “EC50 of T cell-mediated killing (LDH release), MV-3 cells, human PBMCs E:T 10:1, 21 h” value is 0.0092 nM and the “EC50 of T cell-mediated killing (LDH release), WM266-4 cells, human PBMCs E:T 10:1, 21 h” value amounted to 0.0331 nM.

B3: “1+1 IgG scFab, one armed” (anti-MCSP/anti-huCD3) (bispecific antibody)
chain 1: not shown
chain 2: not shown
chain 3: DIVLTQSPSSLSASLGDRVTISCSASQGIRNYLNWYQQRPDGTVKLLIYYTSSLHSGVPSRFSGSGSGTDYSLTISNLEPEDIATYYCQQYSKLPWTFGGGTKLEIKRTVAAPSVFIFPPSDEQLKSGTASVVCLLNNFYPREAKVQWKVDNALQSGNSQESVTEQDSKDSTYSLSSTLTLSKADYEKHKVYACEVTHQGLSSPVTKSFNRGEC
Take B3: the binding result in assay [1] and in assay [2] was “binds” in each case.

B4: 2 + 1 IgG Crossfab, inverted; CL/CH1 exchange (LC007/anti-CD3) (anti-MCSP/anti-huCD3) (bispecific antibody)
chain 1: DIVLTQSPSSLSASLGDRVTISCSASQGIRNYLNWYQQRPDGTVKLLIYYTSSLHSGVPSRFSGSGSGTDYSLTISNLEPEDIATYYCQQYSKLPWTFGGGTKLEIKRTVAAPSVFIFPPSDEQLKSGTASVVCLLNNFYPREAKVQWKVDNALQSGNSQESVTEQDSKDSTYSLSSTLTLSKADYEKHKVYACEVTHQGLSSPVTKSFNRGEC
chain 2: EVQLQESGPGLVKPSQSLSLTCSVTGYSITSGYYWNWIRQFPGNKLEWMGYITYDGSNNYNPSLKNRISITRDTSKNQFFLKLNSVTTEDTATYYCADFDYWGQGTTLTVSSASTKGPSVFPLAPSSKSTSGGTAALGCLVKDYFPEPVTVSWNSGALTSGVHTFPAVLQSSGLYSLSSVVTVPSSSLGTQTYICNVNHKPSNTKVDKKVEPKSCDKTHTCPPCPAPEAAGGPSVFLFPPKPKDTLMISRTPEVTCVVVDVSHEDPEVKFNWYVDGVEVHNAKTKPREEQYNSTYRVVSVLTVLHQDWLNGKEYKCKVSNKALGAPIEKTISKAKGQPREPQVCTLPPSRDELTKNQVSLSCAVKGFYPSDIAVEWESNGQPENNYKTTPPVLDSDGSFFLVSKLTVDKSRWQQGNVFSCSVMHEALHNHYTQKSLSLSPGK
chain 3: QAVVTQESALTTSPGETVTLTCRSSTGAVTTSNYANWVQEKPDHLFTGLIGGTNKRAPGVPARFSGSLIGDKAALTITGAQTEDEAIYFCALWYSNLWVFGGGTKLTVLSSASTKGPSVFPLAPSSKSTSGGTAALGCLVKDYFPEPVTVSWNSGALTSGVHTFPAVLQSSGLYSLSSVVTVPSSSLGTQTYICNVNHKPSNTKVDKKVEPKSC
chain 4: not shown
notes: also called 2+1 IgG Crossfab, inverted (anti-CD3)
For the molecule B4, in assay [3], the “EC50 [pM] of T cell-mediated killing (LDH release), MV-3 cells, human PBMCs E:T 10:1, about 24 h” value worked out at 3 pM and the “EC50 [pM] of T cell-mediated killing (LDH release), WM266-4 cells, human PBMCs E:T 10:1, about 24 h” value turned out to be 7.1 pM. Besides, it took 3.4 nM to reach a half-maximal effect in assay [4] (EC50). This molecule registered an EC50 in assay [5] of 32 nM.

B5: “2+1 IgG scFab, LALA” (anti-MCSP/anti-huCD3) (bispecific antibody)
chain 1: DIVLTQSPSSLSASLGDRVTISCSASQGIRNYLNWYQQRPDGTVKLLIYYTSSLHSGVPSRFSGSGSGTDYSLTISNLEPEDIATYYCQQYSKLPWTFGGGTKLEIKRTVAAPSVFIFPPSDEQLKSGTASVVCLLNNFYPREAKVQWKVDNALQSGNSQESVTEQDSKDSTYSLSSTLTLSKADYEKHKVYACEVTHQGLSSPVTKSFNRGEC
chain 2: not shown
chain 3: EVQLQESGPGLVKPSQSLSLTCSVTGYSITSGYYWNWIRQFPGNKLEWMGYITYDGSNNYNPSLKNRISITRDTSKNQFFLKLNSVTTEDTATYYCADFDYWGQGTTLTVSSASTKGPSVFPLAPSSKSTSGGTAALGCLVKDYFPEPVTVSWNSGALTSGVHTFPAVLQSSGLYSLSSVVTVPSSSLGTQTYICNVNHKPSNTKVDKKVEPKSCDKTHTCPPCPAPEAAGGPSVFLFPPKPKDTLMISRTPEVTCVVVDVSHEDPEVKFNWYVDGVEVHNAKTKPREEQYNSTYRVVSVLTVLHQDWLNGKEYKCKVSNKALPAPIEKTISKAKGQPREPQVCTLPPSRDELTKNQVSLSCAVKGFYPSDIAVEWESNGQPENNYKTTPPVLDSDGSFFLVSKLTVDKSRWQQGNVFSCSVMHEALHNHYTQKSLSLSPGK
notes: Fc with L234A L235A; also called Fc-LALA; copies: 2 + 1 + 1
On to B5, for which the binding result in assay [1] and in assay [2] was “binds” in each case. The molecule also gave a Kd in assay [7] of 2130 nM.
